Measured values: patent publication US20240034786A1 (WUXI BIOLOGICS IRELAND, published 2024)

How the values were obtained:
[1] = molecular target: T1, WBP319-hPro2.ECD.His (R&D) (human, UniProt P12830 155-709); experiment: capture ELISA, antigen held by anti-His antibody
T1 construct: extracellular domain; Bought protein; also called human E-Cadherin.ECD.His; Human E-Cadherin
T1 sequence (looked up): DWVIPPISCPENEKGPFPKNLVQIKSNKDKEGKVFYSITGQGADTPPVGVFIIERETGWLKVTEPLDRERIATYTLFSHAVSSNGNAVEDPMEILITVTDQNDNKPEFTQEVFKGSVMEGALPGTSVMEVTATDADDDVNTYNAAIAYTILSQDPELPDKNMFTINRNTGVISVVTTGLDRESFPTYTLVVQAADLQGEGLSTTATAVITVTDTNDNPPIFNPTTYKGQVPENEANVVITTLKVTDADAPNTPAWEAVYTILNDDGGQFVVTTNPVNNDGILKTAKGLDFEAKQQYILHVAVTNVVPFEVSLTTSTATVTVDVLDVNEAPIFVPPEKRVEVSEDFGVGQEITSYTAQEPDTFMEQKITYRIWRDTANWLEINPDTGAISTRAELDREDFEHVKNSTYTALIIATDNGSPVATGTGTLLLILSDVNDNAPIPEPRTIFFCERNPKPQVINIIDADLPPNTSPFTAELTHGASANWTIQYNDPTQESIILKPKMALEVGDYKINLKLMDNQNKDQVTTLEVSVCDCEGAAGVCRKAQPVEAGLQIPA
Method: (§1) The binding of the antibodies to human E-Cadherin.ECD.His (R&D-8505-NC-050, WBP319-hPro2.ECD.His (R&D)) and human N-Cadherin.ECD.His (R&D-1388-NC-050, WBP319-hPro3.ECD.hFcHis (R&D)) were tested by a captured protein binding ELISA. 96-well high protein binding ELISA plates (Nunc MaxiSorp, ThermoFisher, Cat #: 442404) were coated overnight at 4° C. with 1 μg/mL capture antibody (THETM His Tag mAb, GenScript, Cat #: A00186) in Carbonate-bicarbonate buffer (20 mM Na2CO3, 180 mM NaHCO3, pH=9.2). All wells were washed three time with 300 μL per well of PBS/0.5‰ Tween-20 (v/v) and all the following wash steps in the assay were performed the same. The wells were then blocked for one hour with 3% milk (Shanghai Dingguo-DH220)/1×PBS (Ca+/Mg+) (Gibco, #14040-117) and washed three times, followed by binding of 1 μg/mL antigens in 3% milk/1×PBS (Ca+/Mg+) for 1 hour at room temperature and three washes afterwards. […]
(§2) For the binding detection, 100 μL Tetramethylbenzidine (TMB) Substrate solution (Invitrogen, Cat #: 002023) was added to all wells for 10 minutes before stopping the reaction with 100 μL 2M HCl. The extent of the testing Abs binding to WBP319-hPro2.ECD.His (R&D)) and WBP319-hPro3.ECD.hFcHis (R&D) were determined by measuring the OD450 absorbance using the SpectraMax® M5e microplate reader. […]

[2] = molecular target: T2, WBP319-hPro3.ECD.hFcHis (R&D) (human, UniProt P19022 160-724); experiment: capture ELISA, antigen held by anti-His antibody
T2 construct: extracellular domain; Bought protein; the text calls it ECD.His, the code says hFcHis; also called human N-Cadherin.ECD.His; Human N-Cadherin; not shown: human Fc and His tag by the code hFcHis
T2 sequence (looked up): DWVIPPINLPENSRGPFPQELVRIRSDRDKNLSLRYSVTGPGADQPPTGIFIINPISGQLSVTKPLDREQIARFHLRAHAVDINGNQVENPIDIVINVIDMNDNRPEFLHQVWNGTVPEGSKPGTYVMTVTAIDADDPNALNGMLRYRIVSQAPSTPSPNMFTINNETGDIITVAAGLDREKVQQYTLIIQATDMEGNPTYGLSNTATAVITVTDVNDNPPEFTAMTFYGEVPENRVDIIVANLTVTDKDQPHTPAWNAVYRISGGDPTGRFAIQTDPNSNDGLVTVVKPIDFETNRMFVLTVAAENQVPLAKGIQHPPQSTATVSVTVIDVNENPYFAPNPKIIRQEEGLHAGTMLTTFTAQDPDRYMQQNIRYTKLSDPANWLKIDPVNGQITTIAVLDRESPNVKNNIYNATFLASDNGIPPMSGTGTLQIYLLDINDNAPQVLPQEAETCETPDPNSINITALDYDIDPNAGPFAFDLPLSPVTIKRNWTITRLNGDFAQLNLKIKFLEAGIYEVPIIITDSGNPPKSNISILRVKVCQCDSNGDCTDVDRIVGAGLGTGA
Method: as §1, §2

B1: W3195-1.53.1-p1-uIgG1L (antibody)
heavy: not shown
light: SYELTQPPSVSVSPGQTAQITCSGDKLGDKFASWYQQKSGQSPVVVIYQDNKRPSGFPERFSGSNSGNTATLTISGTQAMDEADYYCQAWDSSIVVFGGGTKLTVLGQPKAAPSVTLFPPSSEELQANKATLVCLISDFYPGAVTVAWKADSSPVKAGVETTTPSKQSNNKYAASSYLSLTPEQWKSHRSYSCQVTHEGSTVEKTVAPTECS
notes: also called W3195-p1 antibody
EC50 [1]: > 100 nM
EC50 [2]: > 100 nM
